Kd, koff and kon data for 20 molecules are collected here from patent US12448423 (Xencor, dated 2025).

Numbering of substitutions follows the chain as printed. Names may count otherwise.

To fix the notation:
T1: NKG2D (affinity ladder and epitope binning; construct not stated) (UniProt P26718 73-216, limits assumed)
T1 sequence (looked up): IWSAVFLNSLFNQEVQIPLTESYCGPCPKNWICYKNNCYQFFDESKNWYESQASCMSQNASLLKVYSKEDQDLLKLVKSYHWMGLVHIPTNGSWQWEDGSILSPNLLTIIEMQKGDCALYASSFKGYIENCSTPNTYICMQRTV

B1: XENP26009 (antibody, V domains shown)
VH: QVQLVQSGAEVKKPGASVKVSCKASGFNIKDTYIHWVRQAPGKGLEWMGRIDPDNGETLYASKFQGRVTITADTSINTAYMELSRLRSDDTAVYYCGRGYGYYVFDHWGQGTTVTVSS
VL: AIKMTQSPSSLSASVGDRVTITCRTSRSISKYLAWYQEKPGKTNKLLIYSGSTLQSGIPSRFSGSGSGTDFTLTISSLQPEDFATYYCQQHNENPLTFGAGTKLEIK
notes: also called OKT8_H2.152_L1.103 one-arm mAb
B2: XENP26231 (antibody, V domains shown)
VH: B1 VH with Y102K
VL: B1 VL
notes: also called OKT8_H2.154_L1.103 one-arm mAb
B3: XENP26019 (antibody, V domains shown)
VH: B1 VH
VL: B1 VL with K31I, S50K, H91A
notes: also called OKT8_H2.152_L1.113 one-arm mAb
B4: XENP26237 (antibody, V domains shown)
VH: B1 VH with G56D, I70M
VL: B1 VL
notes: also called OKT8_H2.160_L1.103 one-arm mAb
B5: XENP26232 (antibody, V domains shown)
VH: B1 VH with V104Y
VL: B1 VL
notes: also called OKT8_H2.155_L1.103 one-arm mAb
B6: XENP26235 (antibody, V domains shown)
VH: B1 VH with I70M, V104Y
VL: B1 VL
notes: also called OKT8_H2.158_L1.103 one-arm mAb
B7: XENP26238 (antibody, V domains shown)
VH: B1 VH with G56D, Y102K
VL: B1 VL
notes: also called OKT8_H2.161_L1.103 one-arm mAb
B8: XENP26243 (antibody, V domains shown)
VH: B1 VH with G56D, I70M, Y100W
VL: B1 VL
notes: also called OKT8_H2.166_L1.103 one-arm mAb
B9: XENP26239 (antibody, V domains shown)
VH: B1 VH with G56D, V104Y
VL: B1 VL
notes: also called OKT8_H2.162_L1.103 one-arm mAb
B10: XENP26242 (antibody, V domains shown)
VH: B1 VH with G56D, I70M, V104Y
VL: B1 VL
notes: also called OKT8_H2.165_L1.103 one-arm mAb
B11: XENP26230 (antibody, V domains shown)
VH: B1 VH with I70M
VL: B1 VL
notes: also called OKT8_H2.153_L1.103 one-arm mAb
B12: XENP26241 (antibody, V domains shown)
VH: B1 VH with G56D, I70M, Y102K
VL: B1 VL
notes: also called OKT8_H2.164_L1.103 one-arm mAb
B13: XENP26234 (antibody, V domains shown)
VH: B1 VH with I70M, Y102K
VL: B1 VL
notes: also called OKT8_H2.157_L1.103 one-arm mAb
B14: XENP26233 (antibody, V domains shown)
VH: B1 VH with Y100W
VL: B1 VL
notes: also called OKT8_H2.156_L1.103 one-arm mAb
B15: XENP26236 (antibody, V domains shown)
VH: B1 VH with I70M, Y100W
VL: B1 VL
notes: also called OKT8_H2.159_L1.103 one-arm mAb
B16: XENP26240 (antibody, V domains shown)
VH: B1 VH with G56D, Y100W
VL: B1 VL
notes: also called OKT8_H2.163_L1.103 one-arm mAb
B17: HIS-tagged human NKG2D (receptor, UniProt P26718 73-216, looked up)
chain: T1 sequence (looked up)
notes: Captured on HIS1K biosensors; not shown: HIS tag
B18: KYK-1.0 (anti-NKG2D antigen binding domain) (antibody, V domains shown)
VH: EVQLVESGGGVVQPGGSLRLSCAASGFTFSSYGMHWVRQAPGKGLEWVAFIRYDGSNKYYADSVKGRFTISRDNSKNTKYLQMNSLRAEDTAVYYCAKDRFGYYLDYWGQGTLVTVSS
VL: QPVLTQPSSVSVAPGETARIPCGGDDIETKSVHWYQQKPGQAPVLVIYDDDDRPSGIPERFFGSNSGNTATLSISRVEAGDEADYYCQVWDDNNDEWVFGGGTQLTVL
notes: also called KYK-1.0[NKG2D]_H1L1
B19: XENP27609 (antibody, human IgG1, kappa, V domains shown)
VH: QVQLVQSGAEVKKPGASVKVSCKVSGFSLTIYGVHWVRQAPGQGLEWMGVIWSGGSTDYNAKFQGRVTMTKDNSKRTVYMELSSLRSEDTAVYYCSRKSHDGYYGVMDYWGQGTTVTVSS
VL: DIQLTQSPDFQSVTPKEKVTITCRASQSIGTSIHWYQQKPDQSPKLLIKYASESISGIPSRFSGSGSGTDFTLTINSLEAEDAATYYCQQSNTWPLTFGAGTKVEIKR
notes: humanized bivalent anti-NKG2D mAb, IgG1 with ablation variants; also called mAb C[NKG2D]_H2L1_IgG1_PVA_/S267K
B20: XENP27610 (antibody, human IgG1, kappa, V domains shown)
VH: B19 VH
VL: DIQLTQSPSSLSASVGDRVTITCRASQSIGTSIHWYQQKPGKSPKLLIKYASESISGIPSRFSGSGSGTDFTLTISSLQPEDFATYYCQQSNTWPLTFGAGTKVEIKR
notes: humanized bivalent anti-NKG2D mAb, IgG1 with ablation variants; also called mAb C[NKG2D]_H2L2_IgG1_PVA_/S267K

In assay [1] the target is T2, cynomolgus CD8 (captured on the Octet biosensor) (cynomolgus).
T2 construct: Construct not described; also called cyno CD8; cyno CD8a
As to the kind of experiment: Octet (BLI); cynomolgus CD8 captured, dipped into multiple concentrations of the one-arm mAb.

Assay [2] concerns the target T3, human CD8 (captured on the Octet biosensor) (human, UniProt P01732 22-182, limits assumed).
T3 construct: Construct not described; also called recombinant human CD8a
As to the kind of experiment: Octet (BLI); human CD8 captured, dipped into multiple concentrations of the one-arm mAb.

For another assay, the target named is T4, XENP27197 (human, UniProt P0DOX7 1-214).
T4 construct: scIL-15/Rα x Fab format; also called NKG2D-targeted IL-15/Rα-Fc fusion based on 1D7B4 and IL-15(N4D/N65D) variant
As to the kind of experiment: Octet (BLI): HIS-tagged human NKG2D captured on HIS1K biosensors, dipped into multiple concentrations of the fusion; global fit, 1:1 Langmuir model.

The target in the next assay is T5, XENP27145 (human).
T5 construct: also called NKG2D-targeted IL-15(N4D/N65D)/Rα-Fc fusion with targeting arm based on MS
Described as above.

Assay [3] concerns the target T1, NKG2D (affinity ladder and epitope …). As to the kind of experiment: affinity ladder; method and format not stated.
In the assay “HIS-tagged human NKG2D” the target is B17. As to the kind of experiment: Octet (BLI): His-tagged human NKG2D captured on HIS1K biosensors, dipped into 100 nM bivalent mAb.

T3 sequence (P01732 22-182 limits assumed): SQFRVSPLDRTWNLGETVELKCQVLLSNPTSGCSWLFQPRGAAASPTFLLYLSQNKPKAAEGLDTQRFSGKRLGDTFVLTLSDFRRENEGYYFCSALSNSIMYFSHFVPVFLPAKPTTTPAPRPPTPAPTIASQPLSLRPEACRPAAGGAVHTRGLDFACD

Regarding B1, in assay [1], the Kd came to 77.6 nM, the koff was found to be 0.00909 s⁻¹ and the kon came out at 117000 M⁻¹ s⁻¹.

In assay [2], B2 showed a Kd of 95.5 nM, a koff of 0.0226 s⁻¹ and a kon of 236000 M⁻¹ s⁻¹. In assay [1], this molecule showed a Kd of 95.9 nM, a koff of 0.00887 s⁻¹ and a kon of 92500 M⁻¹ s⁻¹.

As to B3, in assay [1], the Kd was 80.7 nM, the koff was 0.00962 s⁻¹ and the kon worked out at 119000 M⁻¹ s⁻¹.

In assay [1], B4 came in with a Kd of 67.4 nM, a koff of 0.00767 s⁻¹ and a kon of 114000 M⁻¹ s⁻¹.

With B5, in assay [1], the Kd came to 35.7 nM, the koff was 0.0114 s⁻¹ and the kon stood at 319000 M⁻¹ s⁻¹.

On to B6, for which, in assay [2], the Kd was 1.38 nM, the off-rate (koff) amounted to 0.000992 s⁻¹ and the kon came out at 718000 M⁻¹ s⁻¹. In assay [1], the Kd was 33.5 nM, the koff was 0.00477 s⁻¹ and the kon is 143000 M⁻¹ s⁻¹.

As for B7, in assay [2], the Kd was found to be 96.6 nM, the koff is 0.0262 s⁻¹ and the kon was found to be 271000 M⁻¹ s⁻¹. For the same molecule, in assay [1], the Kd came out at 107 nM, the koff came to 0.00894 s⁻¹ and the kon amounted to 83900 M⁻¹ s⁻¹.

Turning to B8, in assay [2], the Kd came to 3.14 nM, the koff stood at 0.00196 s⁻¹ and the kon was determined as 626000 M⁻¹ s⁻¹. In assay [1], the Kd worked out at 55.9 nM, the koff was 0.0108 s⁻¹ and the kon turned out to be 192000 M⁻¹ s⁻¹.

For the molecule B9, in assay [1], the Kd was 66.6 nM, the koff turned out to be 0.00882 s⁻¹ and the kon was 133000 M⁻¹ s⁻¹.

In assay [1], B10 came in with a Kd of 30 nM, a koff of 0.00968 s⁻¹ and a kon of 322000 M⁻¹ s⁻¹.

On to B11, for which, in assay [1], the Kd turned out to be 39.2 nM, the koff is 0.00967 s⁻¹ and the kon was found to be 247000 M⁻¹ s⁻¹.

Consider B12, for which, in assay [2], the Kd came to 55.6 nM, the koff was determined as 0.0148 s⁻¹ and the kon came to 265000 M⁻¹ s⁻¹. In assay [1], this molecule registered a Kd of 67 nM, a koff of 0.00589 s⁻¹ and an association rate constant (kon) of 88000 M⁻¹ s⁻¹.

In assay [2], B13 gave a Kd of 48.2 nM, a koff of 0.0124 s⁻¹ and a kon of 258000 M⁻¹ s⁻¹. Moreover, in assay [1], the Kd stood at 55.6 nM, the koff came to 0.00448 s⁻¹ and the kon stood at 80600 M⁻¹ s⁻¹.

As to B14, in assay [1], the Kd came to 66.6 nM, the koff was 0.0133 s⁻¹ and the kon is 200000 M⁻¹ s⁻¹.

In assay [1], B15 registered a Kd of 55.1 nM, a koff of 0.00672 s⁻¹ and a kon of 122000 M⁻¹ s⁻¹.

Take B16: in assay [1], the Kd came out at 75.4 nM, the koff came to 0.0225 s⁻¹ and the kon was found to be 298000 M⁻¹ s⁻¹.

Regarding B17, in the assay with XENP27197, the Kd was 8.66 nM, the koff is 0.00325 s⁻¹ and the kon amounted to 375000 M⁻¹ s⁻¹. Besides, in the assay with XENP27145, the Kd turned out to be 2.45 nM, the koff worked out at 0.00123 s⁻¹ and the on-rate (kon) turned out to be 502000 M⁻¹ s⁻¹.

In turn, B18 came in with a Kd in assay [3] of 170 nM.

In the case of B19, in the assay with HIS-tagged human NKG2D, the Kd was 0.167 nM, the koff came to 8.64e-05 s⁻¹ and the kon amounted to 518000 M⁻¹ s⁻¹.

Turning to B20, in the assay with HIS-tagged human NKG2D, the Kd was 0.199 nM, the koff was determined as 0.000145 s⁻¹ and the kon was 727000 M⁻¹ s⁻¹.
